Assay results reported in the Immune Epitope Database (IEDB).
pKd: −log10 of the molar value.

What was measured:
HLA-B*27:05 = assay: IEDB peptide-MHC binding, purified MHC/direct/fluorescence; filed as Kd, often an IC50 or EC50 that approximates it; ≥ and ≤ were set here for values at or beyond the usual limits of such assays; conditions: source organism: Escherichia coli O157:H7
HLA-A*02:01 = assay: as above; conditions: source organism: Escherichia coli O157:H7
HLA-B*58:01 = assay: as above; conditions: source organism: Escherichia coli O157:H7
HLA-B*15:01 = assay: as above; conditions: source organism: Escherichia coli O157:H7
HLA-B*57:01 = assay: as above; conditions: source organism: Escherichia coli O157:H7
HLA-B*48:01 = assay: as above; conditions: source organism: Escherichia coli O157:H7
HLA-B*07:02 = assay: as above; conditions: source organism: Escherichia coli O157:H7
HLA-B*15:17 = assay: as above; conditions: source organism: Escherichia coli O157:H7
HLA-A*68:02 = assay: as above; conditions: source organism: Escherichia coli O157:H7
HLA-A*31:01 = assay: as above; conditions: source organism: Escherichia coli O157:H7
HLA-B*40:01 = assay: as above; conditions: source organism: Escherichia coli O157:H7
HLA-A*01:01 = assay: as above; conditions: source organism: Escherichia coli O157:H7
HLA-A*69:01 = assay: as above; conditions: source organism: Escherichia coli O157:H7
HLA-A*03:01 = assay: as above; conditions: source organism: Escherichia coli O157:H7
HLA-B*18:01 = assay: as above; conditions: source organism: Escherichia coli O157:H7
HLA-A*11:01 = assay: as above; conditions: source organism: Escherichia coli O157:H7
HLA-B*40:13 = assay: IEDB peptide-MHC binding, purified MHC/competitive/fluorescence; filed as Kd, often an IC50 or EC50 that approximates it; ≥ and ≤ were set here for values at or beyond the usual limits of such assays; conditions: source organism: Escherichia coli O139:H28 str. E24377A
HLA-B*45:06 = assay: as above; conditions: source organism: Escherichia coli O139:H28 str. E24377A
HLA-A*32:07 = assay: as above; conditions: source organism: Escherichia coli O139:H28 str. E24377A
HLA-B*83:01 = assay: as above; conditions: source organism: Escherichia coli O139:H28 str. E24377A
HLA-B*39:01 = assay: as above; conditions: source organism: Escherichia coli O139:H28 str. E24377A
HLA-B*15:42 = assay: as above; conditions: source organism: Escherichia coli O139:H28 str. E24377A

pKd (HLA-B*27:05): 6.23 | pKd (HLA-A*02:01): ≤ 4.70 | pKd (HLA-B*58:01): ≤ 4.70 | pKd (HLA-B*15:01): 7.35 | pKd (HLA-B*57:01): ≤ 4.70 | pKd (HLA-B*48:01): 6.83 | pKd (HLA-B*07:02): ≤ 4.70 | pKd (HLA-B*15:17): ≤ 4.70 | pKd (HLA-A*68:02): ≤ 4.70 | pKd (HLA-A*31:01): ≤ 4.70 | pKd (HLA-B*40:01): ≥ 9.00 | pKd (HLA-A*01:01): ≤ 4.70 | pKd (HLA-A*69:01): ≤ 4.70 | pKd (HLA-A*03:01): ≤ 4.70 | pKd (HLA-B*18:01): ≥ 9.00 | pKd (HLA-A*11:01): ≤ 4.70 | pKd (HLA-B*40:13): 7.21 | pKd (HLA-B*45:06): ≤ 5.30 | pKd (HLA-A*32:07): 7.87 | pKd (HLA-B*83:01): ≤ 5.30 | pKd (HLA-B*39:01): 6.87 | pKd (HLA-B*15:42): ≤ 5.30
Sequence: REWGWRIPF
